Test results published in the DeepSol protein solubility set.

test: soluble on expression in E. coli; label from the status in PepcDB or PDB records

Row | Sequence | soluble on expression in E. coli
1 | MSRDSGNDSEVAVTHGEVQEITEENPEIGSMHITQETDISDAPETNTDSSRQRTESTTSVSSESWQNNDEMMSNLRRAQRLLDDGATPLQIIQQIFPDFNASRIATMSENAHFAILSDLLERAPVRQKLTNYNSLADAVELFKTKKHILVLTGAGVSVSCGIPDFRSKDGIYARLRSEFPDLPDPTAMFDIRYFRENPAPFYNFAREIFPGQFVPSVSHRFIKELETSGRLLRNYTQNIDTLEHQTGIKRVVECHGSFSKCTCTRCGQKYDGNEIREEVLAMRVAHCKRCEGVIKPNIVFFGEDLGREFHQHVTEDKHKVDLIVVIGSSLKVRPVALIPHCVDKNVPQILINRESLPHYNADIELLGNCDDIIRDICFSLGGSFTELITSYDSIMEQQGKTKSQKPSQNKRQLISQEDFLNICMKEKRNDDSSDEPTLKKPRMSVADDSMDSEKNNFQEIQKHKSEDDDDTRNSDDILKKIKHPRLLSITEMLHDNKCVAISAHQTVFPGAECSFDLETLKLVRDVHHETHCESSCGSSCSSNADSEANQLSRAQSLDDFVLSDEDRKNTIHLDLQRADSCDGDFQYELSETIDPETFSHLCEEMRI | not soluble
2 | MGSDKIHHHHHHMRFMLYEFLKNNYKEAEPIFFSDIVIEGITKSAVNQQLKKLCDEGKLQKYENGIYYLPKKSRLKTNVGVNADMVARYKYVSRGGKVDGFYSGNTFANQLGISTQVPNKVEIVSNNMAAKIREIPIGKRTFIVRRPVVPVNEENVYVLQLLDLLKNLDMYLDESYDVAHDKVSQFVQIHGITKNDVDSYIREFPIAIFRYYYELRLDDVFA | not soluble
3 | MGSDKIHHHHHHMITQQQIETVLGQIIDPTTGKDYLTSKAVSDIQIKQDNVSVNIELGYPAKSVLNTVHQQIEQAIRTVPGIGSITVNVTSNIIAHSAQRKLKLIPGVKNVIAVASGKGGVGKSATAVNLALALAAEGATVGILDADIYGPSQPQMLGVSGRPDSPDGKTIEPMQAHGIQMMSIGLLIDVETPMVWRGPMVTQALQQLLNDTRWHDLDYLVIDLPPGTGDIQLTLAQKIPVTGAVIVTTPQDIALLDARKGLKMFEKVGIPILGIVENMSLHTCSHCGHTEPIFGTGGGEKMCRDYNVELLGALPLDIRIREHTDAGKPSVVAEPDGQIADIYRTIARLVAAKISDMARDYSDVFTQIIMEDD | not soluble
4 | MNELINGNAIKMTSIEIAELVESRHSNVKVSIDRLVKRGVIKPPALQHTNIINDLGVITGKRDFYVFEGEKGKRDSIIVVAQLSPEFTARLVDRWRELEEAAVNIPKTLPEALRLAADLAEQKMQLENQLAIAAPKVEFADRVGEASGILIGNFAKVVGIGPNKLFAWMRDHKILIASGARRNVPMQEYMERGYFTVKETAVNTNHGIQISFTTKITGRGQQWLTRKLLDNGMLKVTGEAA | not soluble
5 | MSLVRDIKTFKFFEVLLIYEMLEVLKALAMMNATRKVVKISSKELAEHIGQSLQTAARKLKELEDEGLIDRTLTKDGQFVVITEKGKQLLYKEYMDYKKIFDDEGTIKIKGEVFSGVGEGRYYVSLEGYRKQFREKLGFDPYPGTLNLRIPKEEMYFRRRLDEERGILIEGFSTEDRTFGEVKAFKCRINGIEGAIVIPKRTHYPAEILEVISPVKLRDKLGLKDGDFVEVEVILEGHHHHHH | soluble
6 | MLIRRKIMQYNDMSKEELLVLKESLNKEYAEAKAKGLALDMSRGKPSAKQLDVSLGLLDTINSSSDLKSLDGTDCRNYGVLDGIPEAKKLMADMMGTTPDHVIVYGNASLNIMYDQISRAYTHGILGNTPWCKLDKVKFLCPVPGYDRHFAITERFGIEMINIPMSESGPDMGMVEEYVSKDASVKGIWCVPKYSNPQGYTYSEETVKRMAALKPAAEDFRIFWDNAYVIHDLYDDNKDEIADIISECEKAGNPDMVFEFASTSKVSFPGSGIAALATSANNIADIKKQLTIQTIGHDKLNQLRHVRFFKDINGLKEHMRKHAEFIRPKFEAVESVLEEELSGLGIGSWTEPKGGYFISFDAMDGCAKAIVAKCKEAGVKLTGAGATFPYGKDPKDSNIRIAPSFPTPEEMKQAADLFVLCVKLVSVEKLLENK | not soluble
7 | ILVKNLPQDSNCQEVHDLLKDYDLKYCYVDRNKRTAFVTLLNGEQAQNAIQMFHQYSFRGKDLIVQLQPTDALLC | soluble
8 | MRGSHHHHHHGSTMDIKPAFGTNQEDYASYIMNGIIKWGDPVTRVLDDGELLVQQTKNSDRTPLVSVLLEGPPHSGKTALAAKIAEESNFPFIKICSPDKMIGFSETAKCQAMKKIFDDAYKSQLSCVVVDDIERLLDYVPIGPRFSNLVLQALLVLLKKAPPQGRKLLIIGTTSRKDVLQEMEMLNAFSTTIHVPNIATGEQLLEALELLGNFKDKERTTIAQQVKGKKVWIGIKKLLMLIEMSLQMDPEYRVRKFLALLREEGASPLDFK | soluble
9 | MSLADKRIGILVYDGVLTSDVTAPLEVFGVASRLTWFSDYEVLTISVSDQKTITTEEGLEIGVDAWIGDQPELDVLVLTSSYDMDALIENKDLIHFIQTTSKAADWMASNCSGAYLLAEAGLLNGKKATTWAGGENGLQKDYPAVDVQFNQNFVVDDGVITSNGSLVSYQAALKLLHLMTSESKAQEVADALQYSRFSTEGHHHHHH | soluble
10 | MNKTELIKNVAQNAEISQKEATVVVQTVVESITNTLAAGEKVQLIGFGTFEVRERAARTGRNPQTGEEMQIAASKVPAFKAGKELKEAVK | soluble
11 | SVACLSCRKRHIKCPGGNPCQKCVTSNAICEYLEPSKKIVVSTKYLQQLQKDLNDKTEENNRLKALLLER | soluble
12 | MGSDKIHHHHHHMLARDKSNLKIEEIRMHKHHEIHRVKPLMPALCRIRQGKKVINWETHSLTVDNNQIILFPCGYEFYIVNYPEAGLYLAEMLYYPIDLIEKFQKFYAITDQIRNTTGFCLPQNPELIYCWEQLKTSISRGFSTQIQEHLAMGVLLSLGAHHVNCLLLSDSKQSLISRCYNLMLSEPRTKWTANKVARYLYISVSTLHRRLASEGISFQSILDDVRLNNALSCYTNDSKTHQRDCQGKWLQVSFSFY | not soluble
13 | MRKLSTRPLPLGDGFFDSSSDSSESELSDKDDEDRYSDSTVSTLTSQDRRDTQGCQYPRSSELPISESPAPRARRARKQRSKRKSVKPPNTSSDDSSDDSDDSSSSSSSDDSVSSKSSTNSSDSSPCRCRDGLAEWEQRHGRRWHPYGRNGTWEPYRNRRRGIYDCENSPRETYSNGA | not soluble
14 | MSSTLREASKDTLQAKDKTYHYYSLPLAAKSLGDIARLPKSLKVLLENLLRWQDGESVTDEDIQALAGWLKNAHADREIAWRPARVLMQDFTGVPAVVDLAAMREAVKRLGGDTSKVNPLSPVDLVIDHSVTVDHFGDDDAFEENVRLEMERNHERYMFLKWGKQAFSRFSVVPPGTGICHQVNLEYLGKAVWSELQDGEWIAYPDSLVGTDSHTTMINGLGVLGWGVGGIEAEAAMLGQPVSMLIPDVVGFKLTGKLREGITATDLVLTVTQMLRKHGVVGKFVEFYGDGLDSLPLADRATIANMSPEYGATCGFFPIDAITLEYMRLSGRSDDLVELVETYAKAQGMWRNPGDEPVFTSTLELDMGDVEASLAGPKRPQDRVALGDVPKAFAASAELELNTAQRDRQPVDYTMNGQPYQLPDGAVVIAAITSCTNTSNPSVLMAAGLLAKKAVTLGLKRQPWVKASLAPGSKVVSDYLAQAKLTPYLDELGFNLVGYGCTTCIGNSGPLPEPIETAIKKGDLTVGAVLSGNRNFEGRIHPLVKTNWLASPPLVVAYALAGNMNINLATDPLGYDRKGDPVYLKDIWPSAQEIARAVELVSSDMFRKEYAEVFEGTEEWKSIQVESSDTYGWQSDSTYIRLSPFFDEMQAQPAPVKDIHGARILAMLGDSVTTDHISPAGSIKPDSPAGRYLQNHGVERKDFNSYGSRRGNHEVMMRGTFANIRIRNEMLPGVEGGMTRHLPGTEAMSIYDAAMLYQQEKTPLAVIAGKEYGSGSSRDWAAKGPRLLGIRVVIAESFERIHRSNLIGMGILPLEFPQGVTRKTLGLTGEEVIDIADLQNLRPGATIPVTLTRSDGSKETVPCRCRIDTATELTYYQNDGILHYVIRNMLN | not soluble
15 | AFELPPLPYAHDALQPHISKETLEFHHDKHHNTYVVNLNNLVPGTEFEGKTLEEIVKTSSGGIFNNAAQVWNHTFYWNCLSPNAGGQPTGALADAINAAFGSFDKFKEEFTKTSVGTFGSGWGWLVKKADGSLALASTIGAGCPLTIGDTPLLTCDVWEHAYYIDYRNLRPKYVEAFWNLVNWAFVAEQFEGKTYKV | soluble
16 | MATQHPIGKKTACVVGGTGFVASLLVKLLLQKGYAVNTTVRDPDNQKKVSHLLELQELGDLKIFRADLTDELSFEAPIAGCDFVFHVATPVHFASEDPENDMIKPAIQGVVNVMKACTRAKSVKRVILTSSAAAVTINQLDGTGLVVDEKNWTDIEFLTSAKPPTWGYPASKTLAEKAAWKFAEENNIDLITVIPTLMAGSSLTSDVPSSIGLAMSLITGNEFLINGMKGMQMLSGSVSIAHVEDVCRAHIFVAEKESASGRYICCAANTSVPELAKFLSKRYPQYKVPTDFGDFPPKSKLIISSEKLVKEGFSFKYGIEEIYDESVEYFKAKGLLQN | soluble
17 | MGSSHHHHHHSSGENLYFQGMTDPAPPPTALAAAKARMRELAASYGAGLPGRDTHSLMHGLDGITLTFMPMGQRDGAYDPEHHVILINSQVRPERQRFTLAHEISHALLLGDDDLLSDLHDEYEGDRLEQVIETLCNVGAAALLMPAELIDDLLTRFGPTGRALAELARRADVSATSALYALAERTAPPVIYAVCALSRQEDEGEGGGAKELTVRASSASAGVKYSLSAGTPVPDDHPAALALDTRLPLAQDSYVPFRSGRRMPAYVDAFPERQRVLVSFALPAGRSEPDADKPEAPGDQS | soluble
18 | GAKQLSTARKFKMITGKDLFQQQKAMDTELKKEDGEITDLMEFVQYGLYLALFQDNIVKAKSDFSDFRSSFEFDTDGKGLKELVELWQKEI | soluble
19 | STAKNSPKEFTASESEVCIKTFKEQMRLELELPKLPGNRPTSPKISPRSSPRNSPCFFRKLLVNKSIRQRRRFTVAHTCFDVENGPSPGRSPLDPQAGSSSGLVLHAAFPGHSQRRESFLYRSDSDYDLSPKAMSRNSSLPSEQHGDDLIVTPFAQVLASLRSVRNNFTLLTNLHGAPNKRSPAASQAPVSRVSLQVCDHRRLTKCRESKRC | not soluble
20 | MIPADGWRHVGDQWLVSTDGAKIHASELADHLLADFGYAIVYDEMAEPVDLYRTQRFANDKQRLILTADQLLCADPQCTRAAYRGQAHHIEAWKNGGDTNLKNLCLTCGPHNALNDDDHAKGKHKNGHYVRDKYNGRIGWQPPDPTKSIRFNNHVLAQKSGRSWAIRHFGL | not soluble
21 | VKKIKDIGEVAGGSTPSTKIKEYWGGDIPWITPKDLANYEYIYISRGERNITEKAVKECSLRIFPKGTILLTSRAPIGYVAIAKNPLTTNQGFRNIIPKDGVVSEYLYYLFKTKTMSEYLKDISGGSTFPELKGSTLKEVEIPYPSPEEQQKIATVLSYFDD | not soluble
22 | LLERVSAEAVTTTLHQVTRERMEDRCRGEYERSFLREFHKWIERVVGWLGKVFLQDGPARPASPEAGNTLRRWRCHVQRFFYRIYASLRIEELFSIVRDFPDSRPAIEDLKYCLERTDQRQQLLVSLKAALETRLLHPGVNTCDIITLYISAIKALRVLDPSMVILEVACEPIRRYLRTREDTVRQIVAGLTGDSDGTGDLAVELSKTDPASLETGQDSEDDSGEPEDWVPDPVDADPGKSSSKRRSSDIISLLVSIYGSKDLFINEYRSLLADRLLHQFSFSPEREIRNVELLKLRFGEAPMHFCEVMLKDMADSRRINANIREEDEKRPAEEQPPFGVYAVILSSEFWPPFKDEKLEVPEDIRAALEAYCKKYEQLKAMRTLSWKHTLGLVTMDVELADRTLSVAVTPVQAVILLYFQDQASWTLEELSKAVKMPVALLRRRMSVWLQQGVLREEPPGTFSVIEEERPQDRDNMVLIDSDDESDSGMASQADQKEEELLLFWTYIQAMLTNLESLSLDRIYNMLRMFVVTGPALAEIDLQELQGYLQKKVRDQQLVYSAGVYRLPKNCS | soluble
